{
  "source": "patent US20240010753A1",
  "about": "(EPIMAB BIOTHERAPEUTICS HK, published 2024)",
  "key": {"[1]": {"target": "T1, recombinant human ROR1-ECD protein (human, UniProt Q01973 30-406)", "T1 construct": "also called human ROR1 extracellular domain", "T1 sequence (Q01973 30-406)": "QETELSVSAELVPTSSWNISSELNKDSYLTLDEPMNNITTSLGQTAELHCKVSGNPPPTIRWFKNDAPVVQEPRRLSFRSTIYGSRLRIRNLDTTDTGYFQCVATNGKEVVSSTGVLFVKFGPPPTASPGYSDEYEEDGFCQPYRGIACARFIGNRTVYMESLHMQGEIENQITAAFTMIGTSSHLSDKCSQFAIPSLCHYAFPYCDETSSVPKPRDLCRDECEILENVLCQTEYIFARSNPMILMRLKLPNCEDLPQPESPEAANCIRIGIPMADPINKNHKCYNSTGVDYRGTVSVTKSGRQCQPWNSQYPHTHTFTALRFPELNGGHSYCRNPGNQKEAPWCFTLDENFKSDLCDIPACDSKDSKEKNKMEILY", "assay": "BLI (Octet RED96), FIT-Ig captured on anti-hIgG Fc sensors, ROR1 ECD at 10 ug/ml; the reference itself", "protocol": "(§1) The ROR1/CD3 FIT-Ig proteins were assayed for and ranked by dissociation rate constant (koff, “off-rate”) using an Octet®RED96 biolayer interferometry (Pall FortéBio LLC). Anti-hIgG Fc Capture (AHC) Biosensors (Pall) were first exposed to antibody at a concentration of 100 nM for 30 seconds to capture antibody, then dipped into running buffer (1× pH 7.2 PBS, 0.05% Tween 20, 0.1% BSA) for 60 seconds to check baseline. Sensors with captured antibody were dipped into recombinant human ROR1 ECD protein at 10 ug/ml for 5 minutes to measure association, followed by dipped into running buffer for 1200 seconds to measure dissociation. The association and dissociation curves were fitted to a 1:1 Langmuir binding model using ForteBio Data Analysis software (Pall). The off-rate ratios were calculated by the off-rate of antibody to that of FIT1007-12B. Lower ratio indicates slower dissociation of the antibody in comparison with the parental chimeric antibody FIT1007-12B."}, "[2]": {"target": "T1, recombinant human ROR1-ECD protein", "assay": "BLI (Octet), 6 ROR1 antigen concentrations, 3 fold diluted from 500 nM", "protocol": "as §1\nROR1 binding affinity/kinetics of the humanized candidate FIT1007-12B-17 and its parental chimeric FIT-Ig FIT1007-12B were measured using the same method as described in Example 3. For each antibody, measurements were titrated by 6 antigen concentrations, i.e., 3 fold diluted from 500 nM. Binding kinetics of FIT1007-12B-18, MAT1007-12B-17 and MAT1007-12B-18 are similar to those of FIT1007-12B-17. These candidates share the same ROR1 binding Fab."}, "[3]": {"target": "T1, recombinant human ROR1-ECD protein", "assay": "BLI (Octet RED96), FIT-Ig captured on anti-hIgG Fc sensors, ROR1 ECD in solution", "protocol": "as §1"}, "[4]": {"target": "T2, human ROR1 on cells (human, UniProt Q01973 30-937)", "T2 construct": "whole, on cells; the cell line is named under assay; also called CHO-ROR1; CHOK1-ROR1", "T2 sequence (Q01973 30-937)": "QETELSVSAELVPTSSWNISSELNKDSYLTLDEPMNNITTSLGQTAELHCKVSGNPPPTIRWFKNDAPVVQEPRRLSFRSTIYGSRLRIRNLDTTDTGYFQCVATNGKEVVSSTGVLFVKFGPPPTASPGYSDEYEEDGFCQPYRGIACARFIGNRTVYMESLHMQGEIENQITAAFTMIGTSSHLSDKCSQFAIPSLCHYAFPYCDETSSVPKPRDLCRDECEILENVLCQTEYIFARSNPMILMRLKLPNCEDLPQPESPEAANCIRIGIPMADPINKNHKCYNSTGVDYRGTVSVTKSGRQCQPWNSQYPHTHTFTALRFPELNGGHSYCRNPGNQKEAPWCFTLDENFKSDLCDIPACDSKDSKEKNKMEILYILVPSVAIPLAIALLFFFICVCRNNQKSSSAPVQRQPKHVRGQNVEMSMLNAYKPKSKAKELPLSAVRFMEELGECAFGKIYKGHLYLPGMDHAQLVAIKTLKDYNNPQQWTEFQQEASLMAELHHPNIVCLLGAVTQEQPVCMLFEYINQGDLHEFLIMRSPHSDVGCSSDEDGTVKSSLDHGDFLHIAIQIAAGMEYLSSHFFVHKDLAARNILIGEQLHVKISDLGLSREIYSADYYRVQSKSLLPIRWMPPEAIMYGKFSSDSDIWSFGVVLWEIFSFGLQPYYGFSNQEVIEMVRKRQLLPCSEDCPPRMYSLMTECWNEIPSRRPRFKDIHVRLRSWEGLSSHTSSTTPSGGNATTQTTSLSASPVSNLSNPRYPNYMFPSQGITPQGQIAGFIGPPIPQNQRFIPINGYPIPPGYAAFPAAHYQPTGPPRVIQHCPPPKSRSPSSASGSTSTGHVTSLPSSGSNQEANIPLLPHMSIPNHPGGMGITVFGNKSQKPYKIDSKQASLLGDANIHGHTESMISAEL", "assay": "flow cytometry on MDA-MB-231 cells, MFI", "protocol": "(§2) Briefly, 5×10⁵ cells were seeded into each well of a 96-well plate. Cells were centrifuged at 400 g for 5 minutes and supernatants were discarded. For each well, […] of serially diluted antibodies were then added and mixed with the cells. After 40 minutes of incubation at 4° C., plates were washed several times to remove excess antibodies. Secondary fluorochrome-conjugated goat anti-human IgG antibody was then added and incubated with cells at room temperature for 20 minutes. After another round of centrifugation and a washing step, cells were resuspended in FACS buffer for reading on a CytoFLEX Flow Cytometer (Beckman Coulter). Median Fluorescence Intensity (MFI) readouts were plotted against antibody concentration and analyzed with GraphPad Prism 6.0 software."}, "[5]": {"target": "T2, human ROR1 on cells", "assay": "flow cytometry on RPMI8226 cells, internalization assay, 4°C control (coincides with 37°C + PAO)", "protocol": "The binding internalization of humanized anti-ROR1 antibodies were characterized with ROR1-expressing myeloma cell line RPMI8226 with a method similar to that described previously in Example 1.4. Briefly, cells were harvested and resuspended in FACS buffer at density of 3 million per mL. Diluted antibodies were added to the tubes and incubated for 30 min at 4° C. After the first incubation, cells were washed three times with cold PBS to remove unbound antibody. Then, the cells of each antibody treatment were split into three groups, 4° C., 37° C. and 37° C.+PAO, respectively. Cells in the 37° C. […] After another round of centrifugation and washing step, cells were resuspended in FACS buffer for reading on a CytoFLEX Flow Cytometer (Beckman Coulter). An irrelevant mouse IgG control (MFIbackground) was calculated and used for background calibration. The difference between the MFI readout of “control” and that of “internalization” (ΔMFI) reflects the internalization of ROR1 antibodies, and such difference in relative to calibrated MFI of “control” reflects percentage of antibody internalization, which is calculated as follows and is summarized below in Table 15. […] The calculated antibody internalization percentages of HuROR-mAb004-1 and FIT1007-12B-17 were consistent with the results shown in Example 1.4, Table 4."}, "[6]": {"target": "T2, human ROR1 on cells", "assay": "flow cytometry on RPMI-8226 cells, MFI", "protocol": "as §2"}, "[7]": {"target": "T2, human ROR1 on cells", "assay": "flow cytometry on NCI-H1975 cells, MFI", "protocol": "as §2"}, "[8]": {"target": "T2, human ROR1 on cells", "assay": "flow cytometry on A549 cells, MFI", "protocol": "as §2"}},
  "data": [
    {"binder": "FIT1007-12B (bispecific antibody, human IgG1, kappa, L234A L235A, also called parental chimeric FIT-Ig; chimeric antibody (FIT1007-12B)) chain 1: not shown chain 2: QVQLQQSGPELVKPGASVKISCKASGYAFSRSWMNWVKQRPEKGLEWIGRIYPGNGDIKYNGNFKGKATLTADKSSSTAYMQLSSLTSEDSAVYFCAHIYYDFYYALDYWGQGTSVTVSSASTKGPSVFPLAPSSKSTSGGTAALGCLVKDYFPEPVTVSWNSGALTSGVHTFPAVLQSSGLYSLSSVVTVPSSSLGTQTYICNVNHKPSNTKVDKKVEPKSC chain 3: not shown", "values": [
      {"measurement": "Off-rate Ratio", "setting": "[1]", "value": 100, "unit": "%"},
      {"measurement": "Kd", "setting": "[2]", "value": 5.67, "unit": "nM"},
      {"measurement": "koff", "setting": "[2]", "value": 0.00103, "unit": "s⁻¹"},
      {"measurement": "kon", "setting": "[2]", "value": 182000, "unit": "M⁻¹ s⁻¹"}
    ]},
    {"binder": "FIT1007-12B-15 (bispecific antibody, human IgG1, kappa, L234A L235A, Chimeric ROR1 arm with CDR-H2 point mutations (AQ); ROR1xCD3 FIT-Ig, no linkers) chain 1: not shown chain 2: QVQLQQSGPELVKPGASVKISCKASGYAFSRSWMNWVKQRPEKGLEWIGRIYPGNADIKYQGNFKGKATLTADKSSSTAYMQLSSLTSEDSAVYFCAHIYYDFYYALDYWGQGTSVTVSSASTKGPSVFPLAPSSKSTSGGTAALGCLVKDYFPEPVTVSWNSGALTSGVHTFPAVLQSSGLYSLSSVVTVPSSSLGTQTYICNVNHKPSNTKVDKKVEPKSC chain 3: not shown", "values": [
      {"measurement": "binding result", "setting": "[3]", "value": "no binding (tested: 10 ug/ml)"}
    ]},
    {"binder": "HuROR1-mAb004-1 (antibody, V domains shown, only the variable domains are tied to it; also called HuROR-mAb004-1; parental anti-ROR1 monoclonal IgG1 antibody) VH: EVQLVQSGAEVKKPGSSVKVSCKASGYTFSRSWMNWVRQAPGQGLEWMGRIYPGNADIKYNANFKGRVTITADKSTSTAYMELSSLRSEDTAVYYCAHIYYDFYYALDYWGQGTTVTVSS VL: DIQMTQSPSSLSASVGDRVTITCKASQDINKYITWYQQKPGKAPKLLIYYTSTLQPGVPSRFSGSGSGTDYTFTISSLQPEDIATYYCLQYDSLLWTFGGGTKVEIK", "values": [
      {"measurement": "EC50 (read off the curve)", "setting": "[4]", "value": "~2", "unit": "nM"},
      {"measurement": "EC50 (read off the curve)", "setting": "[5]", "value": "~1", "unit": "nM"},
      {"measurement": "EC50 (read off the curve)", "setting": "[6]", "value": "~1", "unit": "nM"},
      {"measurement": "EC50 (read off the curve)", "setting": "[7]", "value": "~2", "unit": "nM"},
      {"measurement": "EC50 (read off the curve)", "setting": "[8]", "value": "~1", "unit": "nM"}
    ]}
  ]
}
